We go through 18 variants from the RNAGym collection of RNA variant scans (doi:10.1021/acssynbio.7b00057).

The chains are these.
B1: Pistol ribozyme (parent)
chain: GGGUCGUUGUUCCAUAAUCGCGUGGAUAUGGCACGCAAGUUUCUACCGGGCACCGUAAAUGUCCGACUGGAGCCGUUCGGGCGGCUAUAAACAGACCUCAGGCCCGAAGCGUGGCGGCACCUGCCGCCGGUGGUAAAAAAGAUCGGAAGAGCACACGUCU

Variants of B1 are the subject of the series. In words: aptazyme ON/OFF ratio, guanine; higher = stronger switching; co-transcriptional cleavage with and without guanine.
On to GGGUCGCUAGCGUAUAAUCGCGUGGAUAUGGCACGCAAGUUUCUACCGGGCACCGUAAAUGUCCGACUGGAGCCGUUCGGGCGGCUAUAAACAGACCUCAGGCCCGAAGCGUGGCGGCACCUGCCGCCGGUGGUAAAAAAGAUCGGAAGAGCACACGUCU [U7C G9A U10G U11C C12G C13U], for which the “aptazyme ON/OFF ratio” value worked out at 1.11.

For the variant GGGUCGCUAGCGGAUAAUCGCGUGGAUAUGGCACGCAAGUUUCUACCGGGCACCGUAAAUGUCCGACUGGAGCCGUUCGGGCGGCUAUAAACAGACCUCAGGCCCGAAGCGUGGCGGCACCUGCCGCCGGUGGUAAAAAAGAUCGGAAGAGCACACGUCU [U7C G9A U10G U11C C12G C13G], the “aptazyme ON/OFF ratio” value worked out at 1.34. As to GGGUCGCUAGCGAAUAAUCGCGUGGAUAUGGCACGCAAGUUUCUACCGGGCACCGUAAAUGUCCGACUGGAGCCGUUCGGGCGGCUAUAAACAGACCUCAGGCCCGAAGCGUGGCGGCACCUGCCGCCGGUGGUAAAAAAGAUCGGAAGAGCACACGUCU [U7C G9A U10G U11C C12G C13A], the “aptazyme ON/OFF ratio” value turned out to be 1.19. To GGGUCGCUAGGCGAUAAUCGCGUGGAUAUGGCACGCAAGUUUCUACCGGGCACCGUAAAUGUCCGACUGGAGCCGUUCGGGCGGCUAUAAACAGACCUCAGGCCCGAAGCGUGGCGGCACCUGCCGCCGGUGGUAAAAAAGAUCGGAAGAGCACACGUCU [U7C G9A U10G U11G C13G] belongs 1.05; to GGGUCGCUAGGCAAUAAUCGCGUGGAUAUGGCACGCAAGUUUCUACCGGGCACCGUAAAUGUCCGACUGGAGCCGUUCGGGCGGCUAUAAACAGACCUCAGGCCCGAAGCGUGGCGGCACCUGCCGCCGGUGGUAAAAAAGAUCGGAAGAGCACACGUCU [U7C G9A U10G U11G C13A], 1.24; to GGGUCGCUAGGCUAUAAUCGCGUGGAUAUGGCACGCAAGUUUCUACCGGGCACCGUAAAUGUCCGACUGGAGCCGUUCGGGCGGCUAUAAACAGACCUCAGGCCCGAAGCGUGGCGGCACCUGCCGCCGGUGGUAAAAAAGAUCGGAAGAGCACACGUCU [U7C G9A U10G U11G C13U], 1.17.

As to GGGUCGCUAUAGAAUAAUCGCGUGGAUAUGGCACGCAAGUUUCUACCGGGCACCGUAAAUGUCCGACUGGAGCCGUUCGGGCGGCUAUAAACAGACCUCAGGCCCGAAGCGUGGCGGCACCUGCCGCCGGUGGUAAAAAAGAUCGGAAGAGCACACGUCU [U7C G9A U11A C12G C13A], the “aptazyme ON/OFF ratio” value was 1.15. Next, GGGUCGCUAGGAUAUAAUCGCGUGGAUAUGGCACGCAAGUUUCUACCGGGCACCGUAAAUGUCCGACUGGAGCCGUUCGGGCGGCUAUAAACAGACCUCAGGCCCGAAGCGUGGCGGCACCUGCCGCCGGUGGUAAAAAAGAUCGGAAGAGCACACGUCU [U7C G9A U10G U11G C12A C13U]: 1.13. Next, GGGUCGCUAGGAAAUAAUCGCGUGGAUAUGGCACGCAAGUUUCUACCGGGCACCGUAAAUGUCCGACUGGAGCCGUUCGGGCGGCUAUAAACAGACCUCAGGCCCGAAGCGUGGCGGCACCUGCCGCCGGUGGUAAAAAAGAUCGGAAGAGCACACGUCU [U7C G9A U10G U11G C12A C13A]: 1.17; GGGUCGCUAGGAGAUAAUCGCGUGGAUAUGGCACGCAAGUUUCUACCGGGCACCGUAAAUGUCCGACUGGAGCCGUUCGGGCGGCUAUAAACAGACCUCAGGCCCGAAGCGUGGCGGCACCUGCCGCCGGUGGUAAAAAAGAUCGGAAGAGCACACGUCU [U7C G9A U10G U11G C12A C13G]: 1.09; GGGUCGCUAGGGAAUAAUCGCGUGGAUAUGGCACGCAAGUUUCUACCGGGCACCGUAAAUGUCCGACUGGAGCCGUUCGGGCGGCUAUAAACAGACCUCAGGCCCGAAGCGUGGCGGCACCUGCCGCCGGUGGUAAAAAAGAUCGGAAGAGCACACGUCU [U7C G9A U10G U11G C12G C13A]: 1.07.

GGGUCGCUAGGGUAUAAUCGCGUGGAUAUGGCACGCAAGUUUCUACCGGGCACCGUAAAUGUCCGACUGGAGCCGUUCGGGCGGCUAUAAACAGACCUCAGGCCCGAAGCGUGGCGGCACCUGCCGCCGGUGGUAAAAAAGAUCGGAAGAGCACACGUCU [U7C G9A U10G U11G C12G C13U]: the “aptazyme ON/OFF ratio” value is 1.07. Next, GGGUCGCUAGGGGAUAAUCGCGUGGAUAUGGCACGCAAGUUUCUACCGGGCACCGUAAAUGUCCGACUGGAGCCGUUCGGGCGGCUAUAAACAGACCUCAGGCCCGAAGCGUGGCGGCACCUGCCGCCGGUGGUAAAAAAGAUCGGAAGAGCACACGUCU [U7C G9A U10G U11G C12G C13G]: 1.05; GGGUCGCUAGGUAAUAAUCGCGUGGAUAUGGCACGCAAGUUUCUACCGGGCACCGUAAAUGUCCGACUGGAGCCGUUCGGGCGGCUAUAAACAGACCUCAGGCCCGAAGCGUGGCGGCACCUGCCGCCGGUGGUAAAAAAGAUCGGAAGAGCACACGUCU [U7C G9A U10G U11G C12U C13A]: 1.14; GGGUCGCUAGGUGAUAAUCGCGUGGAUAUGGCACGCAAGUUUCUACCGGGCACCGUAAAUGUCCGACUGGAGCCGUUCGGGCGGCUAUAAACAGACCUCAGGCCCGAAGCGUGGCGGCACCUGCCGCCGGUGGUAAAAAAGAUCGGAAGAGCACACGUCU [U7C G9A U10G U11G C12U C13G]: 1.05. As to GGGUCGCUAGGUUAUAAUCGCGUGGAUAUGGCACGCAAGUUUCUACCGGGCACCGUAAAUGUCCGACUGGAGCCGUUCGGGCGGCUAUAAACAGACCUCAGGCCCGAAGCGUGGCGGCACCUGCCGCCGGUGGUAAAAAAGAUCGGAAGAGCACACGUCU [U7C G9A U10G U11G C12U C13U], the “aptazyme ON/OFF ratio” value came out at 1.21. With GGGUCGCUAGCAGAUAAUCGCGUGGAUAUGGCACGCAAGUUUCUACCGGGCACCGUAAAUGUCCGACUGGAGCCGUUCGGGCGGCUAUAAACAGACCUCAGGCCCGAAGCGUGGCGGCACCUGCCGCCGGUGGUAAAAAAGAUCGGAAGAGCACACGUCU [U7C G9A U10G U11C C12A C13G], the “aptazyme ON/OFF ratio” value was determined as 1.11. Consider GGGUCGCUAGCAUAUAAUCGCGUGGAUAUGGCACGCAAGUUUCUACCGGGCACCGUAAAUGUCCGACUGGAGCCGUUCGGGCGGCUAUAAACAGACCUCAGGCCCGAAGCGUGGCGGCACCUGCCGCCGGUGGUAAAAAAGAUCGGAAGAGCACACGUCU [U7C G9A U10G U11C C12A C13U], for which the “aptazyme ON/OFF ratio” value was 1.15.
